Laboratory results published in patent US20250250335A1 (SHENGHE CHINA BIOPHARMACEUTICAL, published 2025).
Where two headings read alike, the source gives them in different places.

Legend:
[1] = biological target: T1, CEACAM6 on the surface of the tumor cells (HPAFII cells) (UniProt P40199 35-320); assay: flow cytometry on HPAFII cells (Mean-FITC); the cells carry CEACAM5 and CEACAM6, signal not divided between the two
T1 construct: whole, on cells
T1 sequence (looked up): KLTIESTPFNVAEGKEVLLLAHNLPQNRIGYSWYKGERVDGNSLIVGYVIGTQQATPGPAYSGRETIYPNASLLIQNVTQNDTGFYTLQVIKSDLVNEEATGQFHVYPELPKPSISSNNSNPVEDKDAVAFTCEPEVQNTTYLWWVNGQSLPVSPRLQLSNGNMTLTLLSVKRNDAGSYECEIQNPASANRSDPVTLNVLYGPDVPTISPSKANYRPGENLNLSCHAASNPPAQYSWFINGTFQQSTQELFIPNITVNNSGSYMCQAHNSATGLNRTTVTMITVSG
Procedure: (§1) The antibody to be tested was taken as the initial concentration of 200 nM and diluted 5-fold with 6 gradients. The HPAFII cells (From USTC […] FOR ADVANCED STUDIES) in the incubator were taken out, and the cell suspension was transferred to a 15 mL centrifuge tube, centrifuged, and counted by resuspension in PBS. A blank control group (Blank), a negative control group (NC), an experimental group, a positive control group and the irrelevant antibody group were kept. […] The cell suspension was spread in a 96-well plate according to about 3×10⁵ cells/well. Centrifugation (1000 rpm, 5 min) was performed, followed by washing with PBS, re-centrifugation, and repeated twice to remove media residues. The supernatant was discarded, 100 μL of primary antibody solution and irrelevant antibody solution were added to the experimental group and irrelevant antibody group, respectively, and the cells were resuspended and incubated at room temperature for 1 h. The blank group, and the negative control group were incubated with an equal amount of PBS.
(§2) After 1 h, PBS was added to wash twice. After the supernatant was discarded, 100 μL of fluorescent secondary antibody dilution (Mouse-derived secondary antibody from Abcam ab6785) was added to each sample group, except for the blank group which was added with 100 μL of PBS. After incubation at room temperature and protected from light for 0.5 h, centrifugation was performed and PBS added to wash the samples twice. After the supernatant was discarded, 120 μL of PBS was added to resuspend and sequentially flow cytometry was performed to detect the mean fluorescence intensity. The concentration of the antibody was logarithmically taken as the horizontal coordinate, and the Sigmoidaldose-response (VariableSlope) method (GraphPadPrism Software, GraphPadSoftware, San Diego, California) was chosen to perform a nonlinear regression to obtain the binding activity curves of the antibody on HPAFII cells.

[2] = biological target: T2, CEACAM5 on the surface of the tumor cells (HPAFII cells) (UniProt P06731 35-685); assay: as above
T2 construct: whole, on cells
T2 sequence (looked up): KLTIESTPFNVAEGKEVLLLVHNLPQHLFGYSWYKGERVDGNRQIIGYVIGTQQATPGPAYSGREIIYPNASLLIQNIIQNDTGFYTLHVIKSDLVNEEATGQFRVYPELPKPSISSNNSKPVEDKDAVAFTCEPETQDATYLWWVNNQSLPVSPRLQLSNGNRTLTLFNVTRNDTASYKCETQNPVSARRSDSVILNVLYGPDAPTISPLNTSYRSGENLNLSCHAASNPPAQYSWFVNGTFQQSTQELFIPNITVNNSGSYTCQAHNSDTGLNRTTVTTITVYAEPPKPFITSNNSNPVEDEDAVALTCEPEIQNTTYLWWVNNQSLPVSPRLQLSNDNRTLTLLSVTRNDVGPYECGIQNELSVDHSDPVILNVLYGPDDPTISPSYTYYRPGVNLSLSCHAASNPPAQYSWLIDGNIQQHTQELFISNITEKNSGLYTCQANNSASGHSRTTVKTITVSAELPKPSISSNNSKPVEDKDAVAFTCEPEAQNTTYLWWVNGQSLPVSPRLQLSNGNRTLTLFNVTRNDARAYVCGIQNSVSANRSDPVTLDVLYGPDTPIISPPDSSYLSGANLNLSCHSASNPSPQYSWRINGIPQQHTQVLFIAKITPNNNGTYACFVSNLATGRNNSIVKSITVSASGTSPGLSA
Procedure: as §1, §2

[3] = biological target: T3, Human-CEACAM6 (AB)-His (human, UniProt P40199 145-314); assay: ELISA on coated human CEACAM6 (AB), OD450
T3 construct: Made in house, purified on a nickel column
T3 sequence (P40199 other isoform, or with tags, fused parts or gaps limits assumed): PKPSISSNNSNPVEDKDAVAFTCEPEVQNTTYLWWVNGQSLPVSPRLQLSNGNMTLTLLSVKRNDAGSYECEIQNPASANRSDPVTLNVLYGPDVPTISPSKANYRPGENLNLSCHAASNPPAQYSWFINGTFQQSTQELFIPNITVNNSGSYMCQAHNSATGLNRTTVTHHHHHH
Procedure: (§3) The binding activity of the antibodies to human CEACAM5, human CEACAM6, and human CEACAM6 (AB) proteins was detected by ELISA. The plate coated with proteins was incubated at 4° C. overnight, and the 96-well ELISA plate blocked with 2% PBS-BSA was added with the antibody to be detected and incubated at 37° C. for 1 h. After washing 3 times with PBS containing 0.05% Tween, the absorbance value of each well was read at wavelength 450 nm with the gradient-diluted mouse-derived candidate antibody as the primary antibody and anti-mouse-IgG-FC-HRP as the secondary antibody, and the absorbance value of each well was read at wavelength 450 nm after the TMB color development.

[4] = biological target: T4, human CEACAM6-his (ACRO CE6-H5223) (human, UniProt P40199 35-320); assay: ELISA on coated human CEACAM6, OD450
T4 construct: Bought protein; not shown: His tag
T4 sequence (looked up): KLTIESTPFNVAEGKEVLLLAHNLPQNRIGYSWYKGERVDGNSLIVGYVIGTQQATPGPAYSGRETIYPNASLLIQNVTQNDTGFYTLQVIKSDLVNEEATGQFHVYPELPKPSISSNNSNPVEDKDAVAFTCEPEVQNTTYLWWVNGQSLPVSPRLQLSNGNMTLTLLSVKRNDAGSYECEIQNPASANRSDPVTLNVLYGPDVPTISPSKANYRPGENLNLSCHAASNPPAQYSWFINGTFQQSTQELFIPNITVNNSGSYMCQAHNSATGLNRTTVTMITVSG
Procedure: as §3

[5] = biological target: T5, human CEACAM5-his (ACRO CE5-H5226) (human, UniProt P06731 35-685); assay: ELISA on coated human CEACAM5, OD450
T5 construct: Bought protein; not shown: His tag
T5 sequence (looked up): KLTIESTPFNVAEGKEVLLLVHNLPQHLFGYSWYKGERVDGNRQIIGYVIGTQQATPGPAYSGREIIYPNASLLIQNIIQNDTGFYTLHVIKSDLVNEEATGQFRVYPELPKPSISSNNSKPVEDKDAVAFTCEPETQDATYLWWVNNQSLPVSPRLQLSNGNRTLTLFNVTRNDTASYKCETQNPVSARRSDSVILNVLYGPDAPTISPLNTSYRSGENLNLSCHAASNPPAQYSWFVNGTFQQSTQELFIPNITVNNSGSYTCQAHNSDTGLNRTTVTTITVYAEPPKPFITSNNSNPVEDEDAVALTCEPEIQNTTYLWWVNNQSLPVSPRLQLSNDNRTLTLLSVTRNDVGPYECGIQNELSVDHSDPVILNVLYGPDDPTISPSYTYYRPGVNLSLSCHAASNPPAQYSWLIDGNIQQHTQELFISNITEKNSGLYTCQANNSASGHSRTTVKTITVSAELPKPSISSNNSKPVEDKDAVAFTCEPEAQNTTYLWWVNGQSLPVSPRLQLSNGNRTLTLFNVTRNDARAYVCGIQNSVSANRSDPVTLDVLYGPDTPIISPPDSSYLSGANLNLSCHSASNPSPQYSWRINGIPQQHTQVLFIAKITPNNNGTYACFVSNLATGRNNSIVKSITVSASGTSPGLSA
Procedure: as §3

[6] = biological target: T5, human CEACAM5-his (ACRO CE5-H5226); assay: SPR (Biacore), antibody captured on CM5 chip, antigen as analyte, 1:1 model
Procedure: (§4) The CM5 sensor chip was activated at a flow rate of 10 μL/min for 420 seconds. The channel was then injected with 30 μg/mL of anti-rat Fc IgG in 10 mM NaAc (pH 4.5) at a flow rate of 10 μL/min. The chip was inactivated with 1 M ethanolamine-hydrochloric acid (GE) for 420 seconds at a flow rate of 10 μL/min.
(§5) Candidate antibodies in running buffer 1×HBS-EP+ (10 mM HEPES, 150 mM NaCl, 3 mM EDTA, 0.05% Tween 20, pH 7.4) were captured onto Fc2 with anti-rat Fc IgG at a flow rate of 10 μL/min. The 10 nM human CEACAM5-his protein or CEACAM-6-his or CEACAM6 (AB)-his protein and running buffer were sequentially injected into Fc1-Fc2 at a flow rate of […], bound for 180 seconds, and then dissociated for 3600 seconds. 10 mM glycine (pH 1.5) was injected as regeneration buffer after each dissociation.
(§6) Result plots for the reference channel Fc1 and the buffer channel were subtracted from the test result plots. The experimental data fit the 1:1 binding model. The molecular weight of 110 KDa was used to calculate the molar concentration of CEACAM5 protein, 55 KDa for human CEACAM6-his, and 55 KDa for human CEACAM6 (AB)-his.

[7] = biological target: T3, Human-CEACAM6 (AB)-His; assay: as above
Procedure: as §4, §5, §6

[8] = biological target: T4, human CEACAM6-his (ACRO CE6-H5223); assay: as above
Procedure: as §4, §5, §6

[9] = biological target: T6, mouse CEACAM5 (mouse, UniProt Q3UKK2 35-947, limits assumed); assay: ELISA on coated protein, OD450
T6 sequence (looked up): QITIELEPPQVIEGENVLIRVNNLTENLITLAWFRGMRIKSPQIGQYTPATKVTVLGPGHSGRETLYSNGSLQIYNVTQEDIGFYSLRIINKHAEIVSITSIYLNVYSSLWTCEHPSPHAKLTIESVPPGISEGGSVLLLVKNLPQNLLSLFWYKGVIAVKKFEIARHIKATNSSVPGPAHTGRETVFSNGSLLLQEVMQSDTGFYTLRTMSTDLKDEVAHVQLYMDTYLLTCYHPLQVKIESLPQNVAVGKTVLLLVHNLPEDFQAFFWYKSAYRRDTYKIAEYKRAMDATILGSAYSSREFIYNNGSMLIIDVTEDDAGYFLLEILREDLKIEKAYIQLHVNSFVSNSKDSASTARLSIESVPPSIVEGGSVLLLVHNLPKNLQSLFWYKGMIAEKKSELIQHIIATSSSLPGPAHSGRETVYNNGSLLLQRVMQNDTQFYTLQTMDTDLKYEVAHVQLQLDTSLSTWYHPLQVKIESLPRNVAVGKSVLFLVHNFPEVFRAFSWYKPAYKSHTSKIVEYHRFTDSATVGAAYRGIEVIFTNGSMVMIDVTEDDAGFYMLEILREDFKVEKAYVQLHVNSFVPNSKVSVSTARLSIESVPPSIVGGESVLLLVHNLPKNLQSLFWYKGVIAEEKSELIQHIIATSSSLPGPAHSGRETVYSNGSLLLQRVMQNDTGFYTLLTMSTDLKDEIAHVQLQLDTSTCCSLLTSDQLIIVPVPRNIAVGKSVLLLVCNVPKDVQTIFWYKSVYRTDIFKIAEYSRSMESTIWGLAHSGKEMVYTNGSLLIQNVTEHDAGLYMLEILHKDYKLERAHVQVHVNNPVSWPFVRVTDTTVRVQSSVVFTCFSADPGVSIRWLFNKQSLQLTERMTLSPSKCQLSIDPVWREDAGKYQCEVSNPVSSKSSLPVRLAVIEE
Procedure: The affinity of the antibodies to monkey CEACAM5, monkey CEACAM6, and mouse CEACAM5 proteins was determined by ELISA. The plates encapsulated with […] proteins were incubated at 4° C. overnight, and the antibodies to be detected were added to 96-well ELISA plates after being blocked with 2% PBS-BSA and incubated at 37° C. for 1 h. After washing 3 times with PBS containing 0.05% Tween, the absorbance value of each well was read at wavelength 450 nm with the antibody to be detected as the primary antibody and Goat anti-mouse IgG-FC-HRP as the secondary antibody, and the absorbance value of each well was read at wavelength 450 nm after the TMB color development. The specific binding to CEACAM5 and CEACAM6 of mouse and monkey was detected by Elisa method.

[10] = biological target: T5, human CEACAM5-his (ACRO CE5-H5226); assay: ELISA on coated human CEACAM5, OD450; remark: listed apart in the source
Procedure: as §3

B1: Antibody 7 (antibody, V domains shown)
VH: QIQLVQSGPELKKPGETVKISCKASGYTFTDYGMNWVKQAPGKGLKWMGWINTYTGEPTYPDDFKGRFAFSLETSATTAYLQINNLKNEDTATYFCSRGDLLVRLDNWGQGTTLTVSS
VL: DIQMTQSPSSLSASLGGKVTITCKASQDINKYISWYQHKPGKGPRLLIHYTSTLQSGIPSRFSGSGSGRDYSFSISNLEPEDIATYYCLQYDYLRTFGGGTKLEIK
notes: Mouse-derived hybridoma antibody; also called mouse-derived antibody 7
EC50 (read off the curve) [1]: ~2 nM
EC50 (read off the curve) [2]: ~2 nM
EC50 (read off the curve) [3]: ~0.01 µg/mL

B2: Antibody 14 (antibody, V domains shown)
VH: EVQLVETGGGLVQPKGSLKLSCAASGFSFNTNAMNWVRQAPGKGLEWVARIRSKSNNYATYYADSVKDRFTISRDDSQSMLYLQMNNLKTEDTAMYYCVSFLSLMDYWGQGTSVTVSS
VL: QIVLTQSPAIMSASPGEKVTMTCSASSSISYMHWYQQKPGTSPKRWIYDTSKLASGVPARFSGSGSGTSYSLTISSMEAEDAATYYCHQRSSYPWTFGGGTKLEIK
notes: Mouse-derived hybridoma antibody; also called mouse-derived antibody 14
binding result [4]: binds
binding result [5]: binds

B3: Antibody 13 (antibody, V domains shown)
VH: EVKLVESGGGLVQPGGSLSLSCTASGFTLTDYYMSWVRQPPGRALEWLALIRNKVNGYTIEYSASVKGRFTISRDNSQSILYLQMNALRAEDSATYYCARDIGIRWYFDVWGAGTTVTVSS
VL: QIVLSQSPAILSASPGEKVTMTCRASSSVSYMHWYQQKPGSSPKPWIYATSNLASGVPARFSGSGSGTSYSLTISRMEAEDAATYYCQQWSGNPPTFGGGTKLEIK
notes: Mouse-derived hybridoma antibody; also called mouse-derived antibody 13
EC50 (read off the curve) [5]: ~0.03 µg/mL
Kd [6]: 1.36 nM
Kd [7]: 4.51 nM
Kd [8]: 37.4 nM
EC50 (read off the curve) [3]: ~0.02 µg/mL
OD [9]: 0.15 OD

B4: Antibody 8 (antibody, V domains shown)
VH: EVQLRQSGPELVRPGASMKISCKASGYSFTAYTMTWVKQSHGKILEWIGLIAPYHGGTVYNQKFKGKATLTVDKSSSTAYMELLSLTSEDSAIYYCAGGASSGFVTWFAYWGQGTLVTVSA
VL: DIQMTQSPASLSASVGETVTITCGASENIYGALNWYQRKQGKSPQVLIYGATNLADGTSSRFSGSGSGRQYSLKINSLHPDDVATYYCQNVLSTPYTFGGGTKLEIK
notes: Mouse-derived hybridoma antibody; also called mouse-derived antibody 8
EC50 (read off the curve) [10]: ~0.01 µg/mL
EC50 (read off the curve) [1]: ~2 nM
EC50 (read off the curve) [2]: ~2 nM
EC50 (read off the curve) [3]: ~0.02 µg/mL
